Experiment [1] concerns the target N-type calcium channels in cultured mouse dorsal root ganglion (DRG) neurons (Swiss mice) (UniProt O55017). The experiment in a line: cell-based or functional assay.
For experiment [2], the target named is N-type Ca channels (receptor binding screen of Example 1).
In experiment [3] the target is IL-8RB (UniProt P25025). The experiment in a line: competitive radioligand binding; 10 µM unlabelled Tat-NR2B9c; competitor labeled IL-8.
Chain of IL-8RB (P25025 whole entry): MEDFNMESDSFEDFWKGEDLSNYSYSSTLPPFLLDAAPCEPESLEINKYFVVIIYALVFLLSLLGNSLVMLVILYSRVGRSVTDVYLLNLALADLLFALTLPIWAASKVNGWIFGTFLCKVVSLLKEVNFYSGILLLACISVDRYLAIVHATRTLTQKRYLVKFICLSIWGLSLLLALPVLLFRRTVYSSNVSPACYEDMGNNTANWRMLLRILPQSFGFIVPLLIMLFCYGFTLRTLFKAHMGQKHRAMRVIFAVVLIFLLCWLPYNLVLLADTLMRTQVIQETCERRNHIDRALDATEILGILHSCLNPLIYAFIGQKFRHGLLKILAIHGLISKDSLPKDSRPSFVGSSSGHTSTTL

For the molecule 1993 F-Tat-NR2B9c (peptide), in experiment [1], the Ca^2+ current shown as a percentage, peptide at 100 µM amounted to 91%.
Consider Tat-NR2B9c (peptide), for which the % inhibition of labeled ligand binding in experiment [2] amounted to 100%; in experiment [3], 80%.
1990 TAT (peptide): the Ca^2+ current shown as a percentage, peptide at 100 µM in experiment [1] was determined as 57%.
Same read-out and setting: as for 1992 Tat-NR2B9c-AA (peptide), the figure is 74%; as for 1987 D-Tat-NR2B9c (peptide), 82%; as for KLSSIESDV [1991 2B9c], 94%.

(Values after patent US20150018283A1.)
